The source of these data is paper doi:10.1101/2022.07.20.500776v2.

Substrate in this data set: O=[N+]([O-])c1ccc(OP(=O)(O)O)cc1
In words: purified protein. Particulars: pH 8.0, 100 mM Tris-HCl, 1 mM MgCl2, 10 °C, no added NaCl.

B1: Vibrio alkaline phosphatase (VAP) (Vibrio sp. G15-21) (protein)
chain: AEIKNVILMIGDGMGPQQVGLLETYANQAPNSIYKGNKTAIYQLAQEGVIGSSLTHPEDAIVVDSACSATMLATGIYSSSEVIGIDSQGNHVETVLEKAKKAGKATGLVSDTRLTHATPASFAAHQPHRSLENQIASDMLATGADVMLSGGLRHWIPKSTNDKGETYKQLEKLTQGDVYLKSKRKDDRNLLTEAEKDGYQLAFNRNMLDDAKGDKLLGLFAYSGMDDGIAYSNKKKSGERTQPSLKEMTQKALNILSKDEDGFFLMVEGGQIDWAGHSNDAGTMLHELLKFDEAIQTVYEWAKDREDTIVIVTADHETGSFGFSYSSNDLPKPQKRSGEAFADRDYAPNFNFGAFDILDGLYNQKQSYYGMISEFQKLDKSLQTPEKLAEIVNKNSEFPITAEQAKNVLASKPNPYRLAQHKYLSAEEVPAINDFDAFFPYNDRGNLLAREQATGQNIVWGTGTHTHTPVNVFAWGPAEKILPVSKIMHHSELGEYIKQQVN
As for B1, the Michaelis-Menten constant (Km) is 7.6 ± 1.8 µM and the kcat amounted to 231 ± 15 s⁻¹.

As a reminder, the Km is the concentration of substrate that gives half-maximal velocity. In general, kcat refers to the maximal rate divided by the concentration of active sites.
